In data set [1] the target is T1, HuR full-length (UniProt Q15717 1-326). Put plainly: fluorescence polarisation; 10 nM probe, 0-2000 nM HuR; FP: 10 mM HEPES pH 7.4, 150 mM NaCl, 3 mM EDTA, 0.05% Tween-20; competition 5 min at room temperature; SPR: Biacore 8K, streptavidin chip, buffer not given in the material. Particulars: protein: recombinant; tags: Avi-tag, TEV-cleavable His-tag; label: 3' fluorescein (3FluorT; printed after the 3' G, may add a labelled T); single-stranded. A general note: In fluorescence polarisation assays a small probe gives low polarisation when free and higher when bound to something large.
T1 sequence (Q15717 whole entry): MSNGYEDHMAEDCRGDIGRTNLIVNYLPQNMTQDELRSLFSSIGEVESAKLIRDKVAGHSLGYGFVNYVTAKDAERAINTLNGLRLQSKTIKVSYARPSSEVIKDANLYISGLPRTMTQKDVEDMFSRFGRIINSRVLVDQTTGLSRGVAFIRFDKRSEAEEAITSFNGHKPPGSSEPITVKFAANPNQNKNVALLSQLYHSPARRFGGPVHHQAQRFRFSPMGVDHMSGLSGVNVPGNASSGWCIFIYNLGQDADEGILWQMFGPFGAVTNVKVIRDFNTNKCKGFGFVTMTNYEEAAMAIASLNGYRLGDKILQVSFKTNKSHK

Data set [2] has as its target T1, HuR full-length. Nature of the data set: competition fluorescence polarisation; 8 nM HuR, 8 nM Msi1-FITC probe N1 displaced; FP: 10 mM HEPES pH 7.4, 150 mM NaCl, 3 mM EDTA, 0.05% Tween-20; competition 5 min at room temperature; SPR: Biacore 8K, streptavidin chip, buffer not given in the material. Particulars: protein: recombinant; tags: Avi-tag, TEV-cleavable His-tag; single-stranded.

B1: Msi1-FITC RNA probe (ssRNA)
RNA: GCUUUUAUUUAUUUUG
One may read the Kd as the concentration at which binding is half-saturated. Consider B1, for which the Kd in the data set with HuR full-length [1] stood at 3.7 nM.

B2: unlabelled Msi1 RNA (ssRNA)
RNA: GCUUUUAUUUAUUUUG
For orientation: Ki means a measure of affinity in units of concentration, obtained from inhibition or displacement. On to B2, for which, in the data set with HuR full-length [2], the Ki came to 4 nM.

(Values after PMC10625600, “A TRIM21-based bioPROTAC highlights the therapeutic benefit of HuR degradation”.)
